In US20240000885A1 (VANDERBILT UNIVERSITY, published 2024):

Tests used:
[1] = biological target: MHV M tail with truncation of 40 carboxyl-terminal amino acids (mouse hepatitis coronavirus strain A59, UniProt P04386 1-147); assay: binary yeast 2-hybrid
[2] = biological target: MHV M cytoplasmic tail (amino acids 105-228), GAL4-BD fusion (mouse hepatitis coronavirus strain A59, UniProt P04386 1-147); assay: binary yeast 2-hybrid

Binder	binding result [1]	binding result [2]
pAD-MYO5B(ABCDE) (other, also called MYO5B ABCDE exons; construct containing just the ABCDE exons) GSPDSYSLLLNQLKLAHEELEVRKEEVLILRTQIVSADQRRLAGRNAEPNINARSSWPNSEKHVDQEDAIEAYHGVCQTNSKTEDWGYLNEDGELGLAYQGLKQVARLLEAQLQAQSLEHEEEVEHLKAQLEALKEEMDKQQQTFCQTLLLSPEAQVEFGVQQEISRLTNENLDLKELVEKLEKNERKLKKQLKIYMKKAQDLEA	no binding	–
pAD-MYO5B(ABCE) (other) GSPDSYSLLLNQLKLAHEELEVRKEEVLILRTQIVSADQRRLAGRNAEPNINARSSWPNSEKHVDQEDAIEAYHGVCQTNRLLEAQLQAQSLEHEEEVEHLKAQLEALKEEMDKQQQTFCQTLLLSPEAQVEFGVQQEISRLTNENLDLKELVEKLEKNERKLKKQLKIYMKKAQDLEA	–	no binding
